Laboratory results published in US20060259987A1 (UNIVERSITY OF UTAH RESEARCH FOUNDATION, published 2006).
Each block holds one binder with its values, some of them ahead of it.

Columns and labels:
Assay in all cases: cell-based or functional assay
factor Xa = factor Xa (human, UniProt P00742 41-179; P00742 235-488, limits assumed)
thrombin = thrombin (human, UniProt P00734 328-622)
human factor Xa = human factor Xa (human, UniProt P00742 41-179; P00742 235-488, limits assumed)
human thrombin = human thrombin (human, UniProt P00734 328-622)

factor Xa, sequence (P00742 41-179 limits assumed, chain 1 of 2): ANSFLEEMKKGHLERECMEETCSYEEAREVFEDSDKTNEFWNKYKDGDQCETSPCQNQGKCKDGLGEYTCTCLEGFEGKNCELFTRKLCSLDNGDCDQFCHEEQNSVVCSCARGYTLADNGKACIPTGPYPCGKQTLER
factor Xa, sequence (P00742 235-488 limits assumed, chain 2 of 2): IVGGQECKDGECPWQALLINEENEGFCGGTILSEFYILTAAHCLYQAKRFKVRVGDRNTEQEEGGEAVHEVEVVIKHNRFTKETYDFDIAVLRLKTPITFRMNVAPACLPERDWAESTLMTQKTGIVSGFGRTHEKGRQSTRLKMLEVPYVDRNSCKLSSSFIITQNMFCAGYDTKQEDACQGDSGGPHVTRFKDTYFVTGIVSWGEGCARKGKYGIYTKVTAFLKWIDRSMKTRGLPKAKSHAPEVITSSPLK
human factor Xa, sequence (P00742 41-179 limits assumed, chain 1 of 2): as the sequence (P00742 41-179 limits assumed, chain 1 of 2) above
human factor Xa, sequence (P00742 235-488 limits assumed, chain 2 of 2): as the sequence (P00742 235-488 limits assumed, chain 2 of 2) above

IC50 fXa/UFH; HCA #4 (factor Xa): 18 nM | IC50 IIa/UFH; HCA #4 (thrombin): 333 nM
B1: LEAI.477 (other)
chain: SPVDICTAKPRDIPMNPMCIYRSPEKKATEDEGSEQKIPEATNRRVWELSKANSRFATTFYQHLADSKNDNDNIFLSPLSISTAFAMTKLGACNDTLQQLMEVFKFDTISEKTSDQIHFFFAKLNCRLYRKANKASKLVSANRLFGDKSLTFNETYQDISELVYGAKLQPLDFKENAEQSRAAINKWVSNKTEGRITDVIPSEAINELTVLVLVNTIYFKGLWKSKFSPENTRKELFYKADGESCSASMMYQEGKFRYRRVAEGTQVLELPFKGDDITMVLILPKPEKSLAKVEKELTPEVLQEWLDELEEMMLVVHMPRFRIEDGFSLKEQLQDMGLVDLFSPEKSKLPGIVAEGRDDLYVSDAFHKAFLEVNEEGSEAAASTALEAPGRSLNPNRVTFKANRPFLVFIREVPLNTIIFMGRVANPCVK

IC50 fXa/UFH; HCA #4 (factor Xa): 12 nM | rsd. Xa catG; CA #12; stg1 conc 200 (factor Xa): 1% | rsd. Xa hne; CA #12; stg1 conc 200 (factor Xa): 1% | rsd. Xa no add; CA #12; stg1 conc 200 (factor Xa): 1% | IC50 IIa/UFH; HCA #4 (thrombin): 100 nM | rsd. IIa catG; CA #12; stg1 conc 200 (thrombin): 1% | rsd. IIa hne; CA #12; stg1 conc 200 (thrombin): 79% | rsd. IIa no add; CA #12; stg1 conc 200 (thrombin): 1%
B2: LEAI.478 (other)
chain: SPVDICTAKPRDIPMNPMCIYRSPEKKATEDEGSEQKIPEATNRRVWELSKANSRFATTFYQHLADSKNDNDNIFLSPLSISTAFAMTKLGACNDTLQQLMEVFKFDTISEKTSDQIHFFFAKLNCRLYRKANKASKLVSANRLFGDKSLTFNETYQDISELVYGAKLQPLDFKENAEQSRAAINKWVSNKTEGRITDVIPSEAINELTVLVLVNTIYFKGLWKSKFSPENTRKELFYKADGESCSASMMYQEGKFRYRRVAEGTQVLELPFKGDDITMVLILPKPEKSLAKVEKELTPEVLQEWLDELEEMMLVVHMPRFRIEDGFSLKEQLQDMGLVDLFSPEKSKLPGIVAEGRDDLYVSDAFHKAFLEVNEEGSEAAASTALEASGRSLNPNRVTFKANRPFLVFIREVPLNTIIFMGRVANPCVK

IC50 fXa/UFH; HCA #4 (factor Xa): 28 nM | IC50 IIa/UFH; HCA #4 (thrombin): > 1000 nM
B3: LEAI.473 (other)
chain: SPVDICTAKPRDIPMNPMCIYRSPEKKATEDEGSEQKIPEATNRRVWELSKANSRFATTFYQHLADSKNDNDNIFLSPLSISTAFAMTKLGACNDTLQQLMEVFKFDTISEKTSDQIHFFFAKLNCRLYRKANKASKLVSANRLFGDKSLTFNETYQDISELVYGAKLQPLDFKENAEQSRAAINKWVSNKTEGRITDVIPSEAINELTVLVLVNTIYFKGLWKSKFSPENTRKELFYKADGESCSASMMYQEGKFRYRRVAEGTQVLELPFKGDDITMVLILPKPEKSLAKVEKELTPEVLQEWLDELEEMMLVVHMPRFRIEDGFSLKEQLQDMGLVDLFSPEKSKLPGIVAEGRDDLYVSDAFHKAFLEVNEEGSEAAASTALEADGRSLNPNRVTFKANRPFLVFIREVPLNTIIFMGRVANPCVK

IC50 fXa/UFH (HCA #6) (human factor Xa): 25 nM | IC50 IIa/UFH (HCA #6) (human thrombin): 100 nM
B4: LEAQ.521 (other)
chain: SPVDICTAKPRDIPMNPMCIYRSPEKKATEDEGSEQKIPEATNRRVWELSKANSRFATTFYQHLADSKNDNDNIFLSPLSISTAFAMTKLGACNDTLQQLMEVFKFDTISEKTSDQIHFFFAKLNCRLYRKANKASKLVSANRLFGDKSLTFNETYQDISELVYGAKLQPLDFKENAEQSRAAINKWVSNKTEGRITDVIPSEAINELTVLVLVNTIYFKGLWKSKFSPENTRKELFYKADGESCSASMMYQEGKFRYRRVAEGTQVLELPFKGDDITMVLILPKPEKSLAKVEKELTPEVLQEWLDELEEMMLVVHMPRFRIEDGFSLKEQLQDMGLVDLFSPEKSKLPGIVAEGRDDLYVSDAFHKAFLEVNEEGSEAAASTHLEAQGRSLNPNRVTFKANRPFLVFIREVPLNTIIFMGRVANPCVK

IC50 fXa/UFH; HCA #2 (factor Xa): 37 nM | IC50 IIa/UFH; HCA #2 (thrombin): 45 nM
B5: LEAI (other)
chain: SPVDICTAKPRDIPMNPMCIYRSPEKKATEDEGSEQKIPEATNRRVWELSKANSRFATTFYQHLADSKNDNDNIFLSPLSISTAFAMTKLGACNDTLQQLMEVFKFDTISEKTSDQIHFFFAKLNCRLYRKANKASKLVSANRLFGDKSLTFNETYQDISELVYGAKLQPLDFKENAEQSRAAINKWVSNKTEGRITDVIPSEAINELTVLVLVNTIYFKGLWKSKFSPENTRKELFYKADGESCSASMMYQEGKFRYRRVAEGTQVLELPFKGDDITMVLILPKPEKSLAKVEKELTPEVLQEWLDELEEMMLVVHMPRFRIEDGFSLKEQLQDMGLVDLFSPEKSKLPGIVAEGRDDLYVSDAFHKAFLEVNEEGSEAAASTALEAIGRSLNPNRVTFKANRPFLVFIREVPLNTIIFMGRVANPCVK

IC50 fXa/UFH; HCA #2 (factor Xa): 275 nM | IC50 fXa/UFH; HCA #3 (factor Xa): 320 nM | rsd. Xa catG; CA #12; stg1 conc 200 (factor Xa): 48% | rsd. Xa catG; CA #14; stg1 conc 200 (factor Xa): 59% | rsd. Xa catG; CA #15; stg1 conc 200 (factor Xa): 82% | rsd. Xa hne; CA #12; stg1 conc 200 (factor Xa): 86% | rsd. Xa hne; CA #14; stg1 conc 200 (factor Xa): 100% | rsd. Xa hne; CA #15; stg1 conc 200 (factor Xa): 103% | rsd. Xa no add; CA #12; stg1 conc 200 (factor Xa): 45% | rsd. Xa no add; CA #14; stg1 conc 200 (factor Xa): 44% | rsd. Xa no add; CA #15; stg1 conc 200 (factor Xa): 57% | IC50 IIa/UFH; HCA #2 (thrombin): 37 nM | IC50 IIa/UFH; HCA #3 (thrombin): 35 nM | rsd. IIa catG; CA #12; stg1 conc 200 (thrombin): 0% | rsd. IIa catG; CA #14; stg1 conc 200 (thrombin): 1% | rsd. IIa catG; CA #15; stg1 conc 200 (thrombin): 1% | rsd. IIa hne; CA #12; stg1 conc 200 (thrombin): 62% | rsd. IIa hne; CA #14; stg1 conc 200 (thrombin): 41% | rsd. IIa hne; CA #15; stg1 conc 200 (thrombin): 65% | rsd. IIa no add; CA #12; stg1 conc 200 (thrombin): 0% | rsd. IIa no add; CA #14; stg1 conc 200 (thrombin): 2% | rsd. IIa no add; CA #15; stg1 conc 200 (thrombin): 2%
B6: LEAI.471 (other)
chain: SPVDICTAKPRDIPMNPMCIYRSPEKKATEDEGSEQKIPEATNRRVWELSKANSRFATTFYQHLADSKNDNDNIFLSPLSISTAFAMTKLGACNDTLQQLMEVFKFDTISEKTSDQIHFFFAKLNCRLYRKANKASKLVSANRLFGDKSLTFNETYQDISELVYGAKLQPLDFKENAEQSRAAINKWVSNKTEGRITDVIPSEAINELTVLVLVNTIYFKGLWKSKFSPENTRKELFYKADGESCSASMMYQEGKFRYRRVAEGTQVLELPFKGDDITMVLILPKPEKSLAKVEKELTPEVLQEWLDELEEMMLVVHMPRFRIEDGFSLKEQLQDMGLVDLFSPEKSKLPGIVAEGRDDLYVSDAFHKAFLEVNEEGSEAAASTALEARGRSLNPNRVTFKANRPFLVFIREVPLNTIIFMGRVANPCVK

IC50 fXa/UFH; HCA #3 (factor Xa): 24 nM | IC50 IIa/UFH; HCA #3 (thrombin): 220 nM
B7: LEAI.481 (other)
chain: SPVDICTAKPRDIPMNPMCIYRSPEKKATEDEGSEQKIPEATNRRVWELSKANSRFATTFYQHLADSKNDNDNIFLSPLSISTAFAMTKLGACNDTLQQLMEVFKFDTISEKTSDQIHFFFAKLNCRLYRKANKASKLVSANRLFGDKSLTFNETYQDISELVYGAKLQPLDFKENAEQSRAAINKWVSNKTEGRITDVIPSEAINELTVLVLVNTIYFKGLWKSKFSPENTRKELFYKADGESCSASMMYQEGKFRYRRVAEGTQVLELPFKGDDITMVLILPKPEKSLAKVEKELTPEVLQEWLDELEEMMLVVHMPRFRIEDGFSLKEQLQDMGLVDLFSPEKSKLPGIVAEGRDDLYVSDAFHKAFLEVNEEGSEAAASTALEAGGRSLNPNRVTFKANRPFLVFIREVPLNTIIFMGRVANPCVK

IC50 fXa/UFH (HCA #6) (human factor Xa): 40 nM | IC50 IIa/UFH (HCA #6) (human thrombin): 105 nM
B8: LEAQ.514 (other)
chain: SPVDICTAKPRDIPMNPMCIYRSPEKKATEDEGSEQKIPEATNRRVWELSKANSRFATTFYQHLADSKNDNDNIFLSPLSISTAFAMTKLGACNDTLQQLMEVFKFDTISEKTSDQIHFFFAKLNCRLYRKANKASKLVSANRLFGDKSLTFNETYQDISELVYGAKLQPLDFKENAEQSRAAINKWVSNKTEGRITDVIPSEAINELTVLVLVNTIYFKGLWKSKFSPENTRKELFYKADGESCSASMMYQEGKFRYRRVAEGTQVLELPFKGDDITMVLILPKPEKSLAKVEKELTPEVLQEWLDELEEMMLVVHMPRFRIEDGFSLKEQLQDMGLVDLFSPEKSKLPGIVAEGRDDLYVSDAFHKAFLEVNEEGSEAAASTVLEAQGRSLNPNRVTFKANRPFLVFIREVPLNTIIFMGRVANPCVK

IC50 fXa/UFH; HCA #3 (factor Xa): 100 nM | IC50 IIa/UFH; HCA #3 (thrombin): 280 nM
B9: LEAI.479 (other)
chain: SPVDICTAKPRDIPMNPMCIYRSPEKKATEDEGSEQKIPEATNRRVWELSKANSRFATTFYQHLADSKNDNDNIFLSPLSISTAFAMTKLGACNDTLQQLMEVFKFDTISEKTSDQIHFFFAKLNCRLYRKANKASKLVSANRLFGDKSLTFNETYQDISELVYGAKLQPLDFKENAEQSRAAINKWVSNKTEGRITDVIPSEAINELTVLVLVNTIYFKGLWKSKFSPENTRKELFYKADGESCSASMMYQEGKFRYRRVAEGTQVLELPFKGDDITMVLILPKPEKSLAKVEKELTPEVLQEWLDELEEMMLVVHMPRFRIEDGFSLKEQLQDMGLVDLFSPEKSKLPGIVAEGRDDLYVSDAFHKAFLEVNEEGSEAAASTALEAWGRSLNPNRVTFKANRPFLVFIREVPLNTIIFMGRVANPCVK

IC50 fXa/UFH; HCA #2 (human factor Xa): 45 nM | IC50 IIa/UFH; HCA #2 (human thrombin): 460 nM
B10: 13C.432 (other)
chain: SPVDICTAKPRDIPMNPMCIYRSPEKKATEDEGSEQKIPEATNRRVWELSKANSRFATTFYQHLADSKNDNDNIFLSPLSISTAFAMTKLGACNDTLQQLMEVFKFDTISEKTSDQIHFFFAKLNCRLYRKANKASKLVSANRLFGDKSLTFNETYQDISELVYGAKLQPLDFKENAEQSRAAINKWVSNKTEGRITDVIPSEAINELTVLVLVNTIYFKGLWKSKFSPENTRKELFYKADGESCSASMMYQEGKFRYRRVAEGTQVLELPFKGDDITMVLILPKPEKSLAKVEKELTPEVLQEWLDELEEMMLVVHMPRFRIEDGFSLKEQLQDMGLVDLFSPEKSKLPGIVAEGRDDLYVSDAFHKAFLEVNEEGSEAAASTELEIAGRSLNPNRVTFKANRPFLVFIREVPLNTIIFMGRVANPCVK
